# Laboratory results as given in publication PMC11210196.
# Tested on: CsrA-H6 (Escherichia coli (K-12 MG1655?))
# Assay: EMSA
# Settings: apparent Kd, EMSA: 0.08-0.2 nM RNA, 10 mM MgCl2, 100 mM KCl, 32.5 ng SUPERase In, 37 C 30 min, footprint: 2 nM RNA, 10 mM Tris-HCl pH 7.5, 10 mM MgCl2, 100 mM KCl, 40 ng …
substance,measurement,setting,value
gadB 5' leader (EMSA),Kd,two shifts,49 nM
gadA 5' leader (EMSA),Kd,two shifts,73 nM
evgA 5' leader (EMSA),Kd,two shifted species,7 nM
gadE 5' leader (EMSA),Kd,,138 nM
ydeO 5' leader (EMSA),Kd,binds both conformers,84 nM
